Reference: publication PMC9898259, “Cryo-EM structure supports a role of AQP7 as a junction protein” (Nature Communications, 2023)

Molecular target: the molecule itself
Experiment: cryo-EM structure; single-particle cryo-EM; 1 mg/mL AQP7 in GDN on Quantifoil Cu R1.2/1.3 holey carbon grids, 4 °C; octamer = dimer of tetramers; D4 (2.55 Å) and C1 (3.0 Å) reconstructions

B1: Human aquaglyceroporin 7 (AQP7), full-length, C-terminal poly-histidine tag (natural protein, UniProt O14520 1-342, looked up)
chain: MVQASGHRRSTRGSKMVSWSVIAKIQEILQRKMVREFLAEFMSTYVMMVFGLGSVAHMVLNKKYGSYLGVNLGFGFGVTMGVHVAGRISGAHMNAAVTFANCALGRVPWRKFPVYVLGQFLGSFLAAATIYSLFYTAILHFSGGQLMVTGPVATAGIFATYLPDHMTLWRGFLNEAWLTGMLQLCLFAITDQENNPALPGTEALVIGILVVIIGVSLGMNTGYAINPSRDLPPRIFTFIAGWGKQVFSNGENWWWVPVVAPLLGAYLGGIIYLVFIGSTIPREPLKLEDSVAYEDHGITVLPKMGSHEPTISPLTPVSVSPANRSSVHPAPPLHESMALEHF
notes: Aquaporin-7 (aquaglyceroporin 7), human, full-length gene; residues 25-277 modelled in the 2.55 Å map; Tetramers that pair into an octamer (dimer of tetramers) in the cryo-EM structure; only ~47% of all particles were in the octamer class; also called human AQP7; source: P. pastoris GS115 aqy1Δ::HIS4 agp1Δ::NatMX, purified (Ni-NTA, size-exclusion chromatography) in GDN
stoichiometry N: 8
